From US20220048967A1 (published 2022)

T1: human gastric inhibitory peptide receptor (GIPR) (human, UniProt P48546 22-466)
T1 sequence (looked up): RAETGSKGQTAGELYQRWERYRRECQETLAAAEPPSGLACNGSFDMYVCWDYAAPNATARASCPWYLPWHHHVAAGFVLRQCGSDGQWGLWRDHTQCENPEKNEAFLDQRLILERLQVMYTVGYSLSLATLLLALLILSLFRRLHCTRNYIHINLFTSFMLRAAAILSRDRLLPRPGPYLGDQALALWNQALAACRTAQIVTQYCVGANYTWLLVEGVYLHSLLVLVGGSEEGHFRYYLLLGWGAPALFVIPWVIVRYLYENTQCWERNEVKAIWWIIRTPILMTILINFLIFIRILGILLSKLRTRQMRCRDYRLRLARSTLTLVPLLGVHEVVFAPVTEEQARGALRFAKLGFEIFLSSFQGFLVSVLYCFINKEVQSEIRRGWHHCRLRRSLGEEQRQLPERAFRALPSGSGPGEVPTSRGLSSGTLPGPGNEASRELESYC


Legend:
[1] = target: T1, human gastric inhibitory peptide …; experiment: cell-based or functional assay
[2] = target: human GLP-1 receptor (GLP-1R) (human, UniProt P43220 24-463); experiment: cell-based or functional assay
Throughout, for hGIPR cAMP EC50 ratio: reference of the scale not given here.
Throughout, for hGLP1R cAMP EC50 ratio: reference of the scale not given here.

Binder	hGIPR cAMP EC50 ratio [1]	hGIPR cAMP Rel EC50 [1] [nM]	hGLP1R cAMP EC50 ratio [2]	hGLP1R cAMP Rel EC50 [2] [nM]
YXEGTXTSDHSIXLDEKAQXTFIXYLIEGGPSSGAPPPS (Y-Aib-EGT-αMeF(2F)-TSDHSI-αMeF-LDEK((2-[2-(2-Amino-ethoxy)-ethoxy]-acetyl)2-(γ-Glu)-CO-(CH2)18-CO2H)AQ-Aib-TFI-(D-Glu)-YLIEGGPSSGAPPPS-NH2) [Example 168]	0.313	0.572	0.0323	1.8
YXEGTXTSDHSIXLDEKAQXTFIXYLIEGGPSSGAPPPS (Y-Aib-EGT-αMeF(2F)-TSDHSI-αMeF-LDEK((2-[2-(2-Amino-ethoxy)-ethoxy]-acetyl)2-CO-(CH2)18-CO2H)AQ-Aib-TFI-(D-Glu)-YLIEGGPSSGAPPPS-NH2) [Example 174]	0.483	0.217	0.0968	0.472
YXEGTXTSDHSIXLDXKAQXTFIXYLIEGGPSSGAPPPS (Y-Aib-EGT-αMeF(2F)-TSDHSI-αMeF-LD-Dab-K((2-[2-(2-Amino-ethoxy)-ethoxy]-acetyl)2-(γ-Glu)-CO-(CH2)18-CO2H)AQ-Aib-TFI-(D-Glu)-YLIEGGPSSGAPPPS-NH2) [Example 172]	0.1	1.05	0.038	1.2
YXEGTXTSDHSIXLDEKAQXTFIXYLIEGGPSSGAPPPS (Y-Aib-EGT-αMeF(2F)-TSDHSI-αMeF-LDEK((2-[2-(2-Amino-ethoxy)-ethoxy]-acetyl)2-(γ-Glu)-CO-(CH2)14-CO2H)AQ-Aib-TFI-(D-Glu)-YLIEGGPSSGAPPPS-NH2) [Example 170]	0.185	0.569	0.00438	10.4
YXEGTXTSDHSIXLDEKAQXTFIXYLIEGGPSSGAPPPS (Y-Aib-EGT-αMeF(2F)-TSDHSI-αMeF-LDEK((2-[2-(2-Amino-ethoxy)-ethoxy]-acetyl)2-(ϵK)-CO-(CH2)18-CO2H)AQ-Aib-TFI-(D-Glu)-YLIEGGPSSGAPPPS-NH2) [Example 175]	1.19	0.0881	0.0412	1.11
YXEGTXTSDHSIXLDXKAQXTFIXYLIEGGPSSGAPPPS (Y-Aib-EGT-αMeF(2F)-TSDHSI-αMeF-LD-Orn-K((2-[2-(2-Amino-ethoxy)-ethoxy]-acetyl)2-(γ-Glu)-CO-(CH2)18-CO2H)AQ-Aib-TFI-(D-Glu)-YLIEGGPSSGAPPPS-NH2) [Example 171]	0.471	0.223	0.0609	0.75
YXEGTXTSDHSIXLDEKAQXHFIXYLIEGGPSSGAPPPS (Y-Aib-EGT-αMeF(2F)-TSDHSI-αMeF-LDEK((2-[2-(2-Amino-ethoxy)-ethoxy]-acetyl)2-(γ-Glu)-CO-(CH2)16-CO2H)AQ-Aib-HFI-(D-Glu)-YLIEGGPSSGAPPPS-NH2) [Example 177]	0.0749	1.4	0.00673	6.79
YXEGTXTSDHSIXLDEKAQXTFIXYLIEGGPSSGAPPPS (Y-Aib-EGT-αMeF(2F)-TSDHSI-αMeF-LDEK((2-[2-(2-Amino-ethoxy)-ethoxy]-acetyl)2-(γ-Glu)-CO-(CH2)16-CO2H)AQ-Aib-TFI-(D-Glu)-YLIEGGPSSGAPPPS-NH2) [Example 169]	0.122	0.86	0.0136	3.37
YXEGTXTSDHSIXLDEKAQXTFIXYLIEGGPSSGAPPPS (Y-Aib-EGT-αMeF(2F)-TSDHSI-αMeF-LDEK((2-[2-(2-Amino-ethoxy)-ethoxy]-acetyl)2-(ϵK)-CO-(CH2)16-CO2H)AQ-Aib-TFI-(D-Glu)-YLIEGGPSSGAPPPS-NH2) [Example 176]	0.201	0.523	0.0427	1.07
YXEGTXTSDHSIXLDEKAQXHFIXYLIEGGPSSGAPPPS (Y-Aib-EGT-αMeF(2F)-TSDHSI-αMeF-LDEK((2-[2-(2-Amino-ethoxy)-ethoxy]-acetyl)2-(γ-Glu)-CO-(CH2)14-CO2H)AQ-Aib-HFI-(D-Glu)-YLIEGGPSSGAPPPS-NH2) [Example 178]	0.0341	3.08	0.00349	13.1
YXEGTXTSDHSIXLDXKAQXTFIXYLIEGGPSSGAPPPS (Y-Aib-EGT-αMeF(2F)-TSDHSI-αMeF-LD-Dap-K((2-[2-(2-Amino-ethoxy)-ethoxy]-acetyl)2-(γ-Glu)-CO-(CH2)18-CO2H)AQ-Aib-TFI-(D-Glu)-YLIEGGPSSGAPPPS-NH2) [Example 173]	0.179	0.586	0.0373	1.23
